Target: endogenous GCSF receptor of 32Dcl3 cells
Assay: cell-based or functional assay

Substance: hGCSF (from UniProt P09919 31-204) (ligand)
- kinase activity of Bmx in 32Dcl3 cells: 1.7 fold
